B1: LARP4 (parent)
chain: WTVANMEEIKKLTTDPDLILEVLR
B2: APBB1IP (parent)
chain: PPEPLSQVSMWDQRWQDHQPLLPI

Variants of: B1
Assay: protein stability index of a GFP-peptide fusion (GPS, HEK-293T) (PSI 1-6); higher = more stable
Details: c terminus: a fixed tail appended
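Note: lentivirally expressed fusions sorted by FACS into six bins by GFP to DsRed ratio, PSI derived from sequencing read proportions per bin multiplied by bin number.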

Going from W1E to W1I, the protein stability index falls from 2.75 to 2.25.

Going from W1L to W1S, the protein stability index rises from 2.14 to 2.33.

First: W1R
Second: W1A
The protein stability index of the first is higher: 2.45 for the first, 1.9 for the second.

Compared with W1D, W1V is lower in protein stability index: 3.04 for the first, 2.89 for the second.

Compared with W1K, W1F is higher in protein stability index: 2.26 for the first, 2.74 for the second.

Compared with W1M, W1P is lower in protein stability index: 2.88 for the first, 2.71 for the second.

Compared with W1C, W1G is higher in protein stability index: 1.88 for the first, 2.63 for the second.

Going from W1H to W1T, the protein stability index falls from 2.55 to 2.32.

Going from W1Y to W1N, the protein stability index rises from 2.01 to 2.49.

Compared with W1Q, T2A is lower in protein stability index: 2.91 for the first, 1.42 for the second.

Going from T2G to T2P, the protein stability index rises from 2.28 to 3.13.

First: T2I
Second: T2C
The protein stability index of the first is lower: 1.14 for the first, 2.02 for the second.

Going from T2M to T2S, the protein stability index rises from 1.48 to 2.58.

Going from T2E to T2Q, the protein stability index falls from 2.8 to 1.95.

Compared with T2R, T2K is lower in protein stability index: 2.59 for the first, 1.87 for the second.

Compared with T2N, T2W is higher in protein stability index: 2 for the first, 2.11 for the second.

Going from T2F to T2D, the protein stability index rises from 1.94 to 2.12.

Going from T2H to T2Y, the protein stability index falls from 2.67 to 1.05.

Compared with T2L, T2V is lower in protein stability index: 2.08 for the first, 1.7 for the second.

Going from M6D to M6E, the protein stability index falls from 2.79 to 2.67.

Compared with M6F, M6C is higher in protein stability index: 1.69 for the first, 2.6 for the second.

Compared with M6A, M6G is higher in protein stability index: 1.33 for the first, 1.59 for the second.

Going from N5Y to N5E, the protein stability index rises from 2.38 to 2.47.

Compared with N5V, N5D is higher in protein stability index: 1.85 for the first, 2.79 for the second.

First: N5A
Second: N5C
The protein stability index of the first is lower: 1.29 for the first, 2.04 for the second.

Compared with N5Q, N5L is higher in protein stability index: 2.39 for the first, 2.55 for the second.

Going from N5T to N5W, the protein stability index rises from 1.65 to 1.76.

Compared with N5G, N5F is higher in protein stability index: 1.64 for the first, 1.98 for the second.

Compared with N5S, N5H is higher in protein stability index: 1.66 for the first, 1.99 for the second.

First: N5K
Second: N5P
The protein stability index of the first is higher: 2.05 for the first, 1.76 for the second.

First: N5R
Second: A4N
The protein stability index of the first is lower: 1.16 for the first, 2.59 for the second.

Going from A4K to A4T, the protein stability index falls from 2.6 to 1.97.

Going from A4V to A4E, the protein stability index rises from 1.43 to 2.3.

Going from A4D to A4W, the protein stability index falls from 3.25 to 1.21.

Compared with A4L, A4M is lower in protein stability index: 1.9 for the first, 1.5 for the second.

First: A4F
Second: A4H
The protein stability index of the first is lower: 1.69 for the first, 1.93 for the second.

Going from A4G to A4Q, the protein stability index rises from 2.06 to 2.61.

First: A4C
Second: A4P
The protein stability index of the first is lower: 1.92 for the first, 2.05 for the second.

First: A4S
Second: A4Y
The protein stability index of the first is higher: 1.9 for the first, 1.5 for the second.

Compared with A4R, V3T is lower in protein stability index: 2.45 for the first, 2.18 for the second.

Compared with V3L, V3C is higher in protein stability index: 2.41 for the first, 2.5 for the second.

Going from V3A to V3H, the protein stability index falls from 3.11 to 2.5.

Going from V3M to V3D, the protein stability index rises from 2.29 to 3.05.

Compared with V3Q, V3S is lower in protein stability index: 2.62 for the first, 2.21 for the second.

First: V3F
Second: V3K
The protein stability index of the first is higher: 2.32 for the first, 2.19 for the second.

First: V3P
Second: V3I
The protein stability index of the first is lower: 1.92 for the first, 2.37 for the second.

Going from V3R to V3E, the protein stability index rises from 1.24 to 3.01.

First: V3N
Second: V3Y
The protein stability index of the first is higher: 2.24 for the first, 1.96 for the second.

Variants of: B2
Assay: as above
Details: c terminus: a fixed tail appended

Compared with L21W, L21Q is higher in protein stability index: 2.74 for the first, 3.68 for the second.

Compared with L21I, L21T is higher in protein stability index: 2.58 for the first, 3.93 for the second.

Going from L21N to L21F, the protein stability index falls from 3.88 to 2.24.

First: L21E
Second: L21G
The protein stability index of the first is higher: 4 for the first, 3.76 for the second.

Compared with L21S, L21K is higher in protein stability index: 3.26 for the first, 3.44 for the second.

Going from L21P to L21V, the protein stability index falls from 3.54 to 3.28.

Going from L21Y to L21M, the protein stability index rises from 3.33 to 3.4.

Compared with L21H, L21D is higher in protein stability index: 3.39 for the first, 4.13 for the second.

Going from L21R to P23W, the protein stability index falls from 3.58 to 1.36.

First: P23F
Second: P23L
The protein stability index of the first is lower: 1.67 for the first, 1.99 for the second.

Going from P23C to P23V, the protein stability index falls from 3.48 to 2.92.

First: P23A
Second: P23T
The protein stability index of the first is lower: 2.05 for the first, 2.77 for the second.

Going from P23S to P23N, the protein stability index rises from 2.05 to 3.23.

First: P23M
Second: P23I
The protein stability index of the first is higher: 2.08 for the first, 2.04 for the second.

First: P23H
Second: P23E
The protein stability index of the first is lower: 2.05 for the first, 3.03 for the second.

Compared with P23K, P23R is lower in protein stability index: 2.62 for the first, 2.38 for the second.

First: P23Y
Second: P23Q
The protein stability index of the first is lower: 2.06 for the first, 2.39 for the second.

Compared with I24L, I24F is lower in protein stability index: 3.26 for the first, 2.72 for the second.

First: I24Y
Second: I24Q
The protein stability index of the first is lower: 3.54 for the first, 3.93 for the second.

Going from I24C to I24G, the protein stability index rises from 2.69 to 4.44.

Going from I24N to I24W, the protein stability index falls from 3.12 to 2.04.

Going from I24K to I24P, the protein stability index falls from 3.92 to 3.79.

Compared with I24M, I24H is higher in protein stability index: 3.24 for the first, 3.58 for the second.

Compared with I24R, I24S is higher in protein stability index: 3.12 for the first, 3.55 for the second.

First: I24D
Second: I24V
The protein stability index of the first is higher: 4.43 for the first, 3.29 for the second.

Going from I24T to I24A, the protein stability index falls from 3.62 to 3.26.

Going from I24E to L22V, the protein stability index falls from 3.26 to 3.2.

Compared with L22H, L22W is lower in protein stability index: 3.29 for the first, 2.4 for the second.

First: L22R
Second: L22C
The protein stability index of the first is higher: 3.54 for the first, 3.5 for the second.

Compared with L22T, L22K is higher in protein stability index: 3.74 for the first, 4.04 for the second.

First: L22G
Second: L22S
The protein stability index of the first is higher: 3.8 for the first, 3.55 for the second.

First: L22A
Second: L22M
The protein stability index of the first is higher: 3.4 for the first, 2.58 for the second.

Compared with L22F, L22P is higher in protein stability index: 2.77 for the first, 3.12 for the second.

Going from L22Q to L22I, the protein stability index falls from 3.68 to 2.49.

Compared with L22D, L22Y is lower in protein stability index: 3.89 for the first, 2.44 for the second.

For L22N, the protein stability index was 3.55.

— the supplement of paper PMC10567573
